Experimental data taken from paper PMC7810883, “Phosphorylation-induced changes in the PDZ domain of Dishevelled 3” (Scientific Reports, 2021).
Non-standard residues stand in square brackets, D forms with d. pS = N[C@@H](COP(=O)(O)O)C(=O)O

How the values were obtained:
[1] = biological target: T1, PDZ domain of human Dishevelled 3 (DVL3), aa 243-338, wild type (human, UniProt Q92997 243-338); assay: NMR titration; 1H-15N HSQC of 100 uM 15N-labelled PDZ wt/mutant with increasing amounts of C-terminal peptide (stock 800 uM, up to four-fold over PDZ); 50 mM sodium-phosphate pH 6.5, 50 mM KCl; settings: both partners purified
T1 construct: PDZ domain of human Dishevelled 3 (DVL3), residues 243-338; Cloned in pETM11; also called PDZ wt; hDvl3 PDZ WT domain; source: E. coli BL21(DE3), minimal media (15N or 15N,13C labelling), purified (Ni-NTA, TEV, Q-sepharose, SEC); not shown: His6, N-terminal, cleaved
T1 sequence (looked up): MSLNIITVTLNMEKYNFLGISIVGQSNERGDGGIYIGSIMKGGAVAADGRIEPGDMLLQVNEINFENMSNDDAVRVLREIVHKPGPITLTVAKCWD

[2] = biological target: T2, PDZ domain of human Dishevelled 3 (DVL3), aa 243-338, S280E (human, UniProt Q92997 243-338, S280E); assay: as above; settings: both partners purified
T2 construct: PDZ domain of human Dishevelled 3 (DVL3), residues 243-338, phosphomimetic mutant S280E; Made by site-directed mutagenesis of pETM11-PDZ; also called PDZ S280E; source: E. coli BL21(DE3), minimal media (15N or 15N,13C labelling), purified (Ni-NTA, TEV, Q-sepharose, SEC); not shown: His6, N-terminal, cleaved
T2 sequence (looked up): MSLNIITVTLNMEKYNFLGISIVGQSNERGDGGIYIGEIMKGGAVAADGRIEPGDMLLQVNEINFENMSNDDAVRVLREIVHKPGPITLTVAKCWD

B1: C-terminal DVL peptide consisting of aa 698-716 from DVL3 with phosphorylated pS700 (peptide, UniProt Q92997 698-716, looked up)
peptide: H-RQ[pS]FRMAMGNPSEFFVDVM-OH
notes: C-terminus of human Dishevelled 3 (DVL3), residues 698-716; The phosphorylation at S700 is told only in the methods; also called C-terminal peptide (698-716); C-terminus ligand
binding result [1]: binds | binding result [2]: binds
